Results taken from PMC3204382.

Tests used:
[1] = molecular target: FadR_ec (Escherichia coli, UniProt P0A8V6 1-239); assay: EMSA
[2] = molecular target: FadR_vc (Vibrio cholerae, UniProt Q9KQU8 1-279); assay: EMSA
Sequence of FadR_vc (Q9KQU8 whole entry): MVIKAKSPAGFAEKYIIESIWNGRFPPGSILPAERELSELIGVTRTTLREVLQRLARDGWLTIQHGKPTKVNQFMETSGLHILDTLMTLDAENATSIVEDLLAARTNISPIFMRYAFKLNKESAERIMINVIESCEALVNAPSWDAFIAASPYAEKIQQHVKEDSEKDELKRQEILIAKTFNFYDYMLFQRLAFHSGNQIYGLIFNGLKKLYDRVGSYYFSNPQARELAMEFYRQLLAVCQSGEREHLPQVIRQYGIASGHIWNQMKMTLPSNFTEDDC

Sequence of FadR_ec (P0A8V6 whole entry): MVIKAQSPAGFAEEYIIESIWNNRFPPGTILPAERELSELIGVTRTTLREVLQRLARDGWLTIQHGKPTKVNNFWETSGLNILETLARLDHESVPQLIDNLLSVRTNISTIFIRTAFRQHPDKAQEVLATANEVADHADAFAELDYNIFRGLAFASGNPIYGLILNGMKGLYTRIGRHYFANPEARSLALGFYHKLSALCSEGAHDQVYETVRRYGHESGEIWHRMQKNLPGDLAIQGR

B1: plsB_vc FadR site probe (39 bp) (dsDNA)
DNA 1: TTAAATTAAAAGGTTTGACCAGTTTCTGGTATTCTTGGC
DNA 2: GCCAAGAATACCAGAAACTGGTCAAACCTTTTAATTTAA
What does the source list for B1?
binding result [1]: binds; binding result [2]: binds
